Laboratory results reported in patent US9937235B2, “Lipidated peptides as anti-obesity agents” (USTAV ORGANICKE CHEMIE A BIOCHEMIE AKADEMIE VED CR, V.V.I, priority 2012, dated 2018).
Where no end group is shown, it is not given here. [ ]: non-standard residue; d: D form. The star is where a group is joined. 1Nal = N[C@@H](Cc1cccc2ccccc12)C(=O)O; Palmitoyl = CCCCCCCCCCCCCCCC(=O)*; Myristoyl = CCCCCCCCCCCCCC(=O)*; Lauroyl = CCCCCCCCCCCC(=O)*; NMeA = CN[C@@H](C)C(=O)O; Nle = CCCC[C@H](N)C(=O)O

T1: human PrRP receptor, GPR10, transfected in CHO cells (human, UniProt P49683 1-370)
T1 construct: whole, on cells; also called human GPR10 receptor; the human receptor GPR10 in CHO cells
T1 sequence (looked up): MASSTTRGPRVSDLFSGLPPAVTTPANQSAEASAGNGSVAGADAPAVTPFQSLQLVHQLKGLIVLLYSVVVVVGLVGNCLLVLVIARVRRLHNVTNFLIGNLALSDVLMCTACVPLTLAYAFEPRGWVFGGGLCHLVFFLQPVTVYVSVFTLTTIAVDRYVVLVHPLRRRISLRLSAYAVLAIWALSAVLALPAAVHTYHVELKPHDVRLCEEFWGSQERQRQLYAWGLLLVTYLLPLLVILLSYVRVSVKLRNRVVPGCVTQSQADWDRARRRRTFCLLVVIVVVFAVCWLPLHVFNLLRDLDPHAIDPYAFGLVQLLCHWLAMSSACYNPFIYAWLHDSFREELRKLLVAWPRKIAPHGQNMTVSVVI

T2: rat PrRP receptor in RC-4B/C cells (rat, UniProt Q64121 1-370)
T2 construct: whole, on cells; also called the rat receptor; GPR10
T2 sequence (looked up): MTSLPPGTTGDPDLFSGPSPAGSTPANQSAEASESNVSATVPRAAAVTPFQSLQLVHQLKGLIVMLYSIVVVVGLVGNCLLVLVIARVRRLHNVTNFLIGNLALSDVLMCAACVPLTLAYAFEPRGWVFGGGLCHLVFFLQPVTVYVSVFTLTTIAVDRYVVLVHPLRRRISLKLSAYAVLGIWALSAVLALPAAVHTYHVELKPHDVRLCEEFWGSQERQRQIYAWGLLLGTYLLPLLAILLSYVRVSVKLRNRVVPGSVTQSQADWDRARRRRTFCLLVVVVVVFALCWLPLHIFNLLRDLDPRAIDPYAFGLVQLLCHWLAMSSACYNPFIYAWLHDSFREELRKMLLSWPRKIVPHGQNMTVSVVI


How the values were obtained:
[1] = molecular target: T1, human PrRP receptor, GPR10, transfected …; experiment: competition with 125I-human PrRP31 on CHO cells with transfected human GPR10
Experimental: CHO cells with transfected human PrRP receptor, GPR10 (Perkin Elmer, USA) were grown on 24-well plates coated with polyethyleneimine. The cells were grown to the optimal density of 40-80 thousand cells per well.
(§1) Plates were incubated for 60 minutes at room temperature. After incubation, the cells were solubilized in 0.1 mol/l solution of NaOH and the radioactivity bound to the cells was counted using a γ-counter. The experiments were performed in duplicate and repeated at least three times.

[2] = molecular target: T2, rat PrRP receptor in RC-4B/C cells; experiment: competition with 125I-rat PrRP31 on RC-4B/C cells
Experimental: The rat pituitary cell line RC-4B/C (ATCC, Manassas, USA) was grown on 24-well plates which had their bottom coated with polyethyleneimine. The cells were grown to the optimal density of 300-450 thousand per well.
as §1
For evaluation of competitive binding experiments, the program Graph Pad Prism Software (San Diego, Calif., USA) was used. A method of nonlinear regression assuming one-site binding was used.

Row | Ki [1] | Ki [2] | Binder
1 | 1.92 nM | 1.28 nM | SRAHQHS[Nle]ETRTPDINPAWYTGRGIRPVGRF-NH2 [analog no. 14]
2 | 4.27 nM | 2.17 nM | Palmitoyl-SRAHQHS[Nle]ETRTPDINPAWYTGRGIRPVGR[1Nal]-NH2 [analog no. 23]
3 | 1.33 nM | 3.96 nM | Myristoyl-SRAHQHS[Nle]ETRTPDINPAWYTGRGIRPVGR[1Nal]-NH2 [analog no. 22]
4 | 34.5 nM | 102 nM | SRAHQHS[Nle]ETRTPDINPAWYTGRGIRPVGR[1Nal]-NH2 [analog no. 21]
5 | 8.72 nM | 49.4 nM | TPDINPAWY[NMeA]SRGIRPVGRF-NH2 (N-terminus assumed; SMILES CC[C@H](C)[C@H](NC(=O)CNC(=O)[C@H](CCCNC(=N)N)NC(=O)[C@H](CO)NC(=O)[C@H](C)N(C)C(=O)[C@H](Cc1ccc(O)cc1)NC(=O)[C@H](Cc1c[nH]c2ccccc12)NC(=O)[C@H](C)NC(=O)[C@@H]1CCCN1C(=O)[C@H](CC(N)=O)NC(=O)[C@@H](NC(=O)[C@H](CC(=O)O)NC(=O)[C@@H]1CCCN1C(=O)[C@@H](N)[C@@H](C)O)[C@@H](C)CC)C(=O)N[C@@H](CCCNC(=N)N)C(=O)N1CCC[C@H]1C(=O)N[C@H](C(=O)NCC(=O)N[C@@H](CCCNC(=N)N)C(=O)N[C@@H](Cc1ccccc1)C(N)=O)C(C)C) [analog no. 40]
6 | 0.58 nM | 0.84 nM | Myristoyl-TPDINPAWYASRPFRPVGRF-NH2 (SMILES CCCCCCCCCCCCCC(=O)N[C@H](C(=O)N1CCC[C@H]1C(=O)N[C@@H](CC(=O)O)C(=O)N[C@H](C(=O)N[C@@H](CC(N)=O)C(=O)N1CCC[C@H]1C(=O)N[C@@H](C)C(=O)N[C@@H](Cc1c[nH]c2ccccc12)C(=O)N[C@@H](Cc1ccc(O)cc1)C(=O)N[C@@H](C)C(=O)N[C@@H](CO)C(=O)N[C@@H](CCCNC(=N)N)C(=O)N1CCC[C@H]1C(=O)N[C@@H](Cc1ccccc1)C(=O)N[C@@H](CCCNC(=N)N)C(=O)N1CCC[C@H]1C(=O)N[C@H](C(=O)NCC(=O)N[C@@H](CCCNC(=N)N)C(=O)N[C@@H](Cc1ccccc1)C(N)=O)C(C)C)[C@@H](C)CC)[C@@H](C)O) [analog no. 45]
7 | 1.73 nM | 2.14 nM | TPDINPAWYASRPFRPVGRF-NH2 [analog no. 44]
8 | 2.41 nM | – | Lauroyl-TPDINPAWYASRGIRPVGRF-NH2 (SMILES CCCCCCCCCCCC(=O)N[C@H](C(=O)N1CCC[C@H]1C(=O)N[C@@H](CC(=O)O)C(=O)N[C@H](C(=O)N[C@@H](CC(N)=O)C(=O)N1CCC[C@H]1C(=O)N[C@@H](C)C(=O)N[C@@H](Cc1c[nH]c2ccccc12)C(=O)N[C@@H](Cc1ccc(O)cc1)C(=O)N[C@@H](C)C(=O)N[C@@H](CO)C(=O)N[C@@H](CCCNC(=N)N)C(=O)NCC(=O)N[C@H](C(=O)N[C@@H](CCCNC(=N)N)C(=O)N1CCC[C@H]1C(=O)N[C@H](C(=O)NCC(=O)N[C@@H](CCCNC(=N)N)C(=O)N[C@@H](Cc1ccccc1)C(N)=O)C(C)C)[C@@H](C)CC)[C@@H](C)CC)[C@@H](C)O) [analog no. 54]
9 | 5.48 nM | 0.45 nM | Myristoyl-[Nle]ETRTPDINPAWYTGRGIRPVGRF-NH2 (SMILES CCCCCCCCCCCCCC(=O)N[C@@H](CCCC)C(=O)N[C@@H](CCC(=O)O)C(=O)N[C@H](C(=O)N[C@@H](CCCNC(=N)N)C(=O)N[C@H](C(=O)N1CCC[C@H]1C(=O)N[C@@H](CC(=O)O)C(=O)N[C@H](C(=O)N[C@@H](CC(N)=O)C(=O)N1CCC[C@H]1C(=O)N[C@@H](C)C(=O)N[C@@H](Cc1c[nH]c2ccccc12)C(=O)N[C@@H](Cc1ccc(O)cc1)C(=O)N[C@H](C(=O)NCC(=O)N[C@@H](CCCNC(=N)N)C(=O)NCC(=O)N[C@H](C(=O)N[C@@H](CCCNC(=N)N)C(=O)N1CCC[C@H]1C(=O)N[C@H](C(=O)NCC(=O)N[C@@H](CCCNC(=N)N)C(=O)N[C@@H](Cc1ccccc1)C(N)=O)C(C)C)[C@@H](C)CC)[C@@H](C)O)[C@@H](C)CC)[C@@H](C)O)[C@@H](C)O, lipidated shortened PrRP31 analog) [analog no. 47]
10 | 5.92 nM | 2.61 nM | QHSMETRTPDINPAWYTGRGIRPVGRF-NH2 (shortened PrRP31 analog) [analog no. 48]
11 | 3.44 nM | 2.94 nM | [Nle]ETRTPDINPAWYTGRGIRPVGRF-NH2 (N-terminus assumed; SMILES CCCC[C@H](N)C(=O)N[C@@H](CCC(=O)O)C(=O)N[C@H](C(=O)N[C@@H](CCCNC(=N)N)C(=O)N[C@H](C(=O)N1CCC[C@H]1C(=O)N[C@@H](CC(=O)O)C(=O)N[C@H](C(=O)N[C@@H](CC(N)=O)C(=O)N1CCC[C@H]1C(=O)N[C@@H](C)C(=O)N[C@@H](Cc1c[nH]c2ccccc12)C(=O)N[C@@H](Cc1ccc(O)cc1)C(=O)N[C@H](C(=O)NCC(=O)N[C@@H](CCCNC(=N)N)C(=O)NCC(=O)N[C@H](C(=O)N[C@@H](CCCNC(=N)N)C(=O)N1CCC[C@H]1C(=O)N[C@H](C(=O)NCC(=O)N[C@@H](CCCNC(=N)N)C(=O)N[C@@H](Cc1ccccc1)C(N)=O)C(C)C)[C@@H](C)CC)[C@@H](C)O)[C@@H](C)CC)[C@@H](C)O)[C@@H](C)O, shortened PrRP31 analog) [analog no. 46]
12 | 6.93 nM | 0.37 nM | Myristoyl-QHSMETRTPDINPAWYTGRGIRPVGRF-NH2 (SMILES CCCCCCCCCCCCCC(=O)N[C@@H](CCC(N)=O)C(=O)N[C@@H](Cc1c[nH]cn1)C(=O)N[C@@H](CO)C(=O)N[C@@H](CCSC)C(=O)N[C@@H](CCC(=O)O)C(=O)N[C@H](C(=O)N[C@@H](CCCNC(=N)N)C(=O)N[C@H](C(=O)N1CCC[C@H]1C(=O)N[C@@H](CC(=O)O)C(=O)N[C@H](C(=O)N[C@@H](CC(N)=O)C(=O)N1CCC[C@H]1C(=O)N[C@@H](C)C(=O)N[C@@H](Cc1c[nH]c2ccccc12)C(=O)N[C@@H](Cc1ccc(O)cc1)C(=O)N[C@H](C(=O)NCC(=O)N[C@@H](CCCNC(=N)N)C(=O)NCC(=O)N[C@H](C(=O)N[C@@H](CCCNC(=N)N)C(=O)N1CCC[C@H]1C(=O)N[C@H](C(=O)NCC(=O)N[C@@H](CCCNC(=N)N)C(=O)N[C@@H](Cc1ccccc1)C(N)=O)C(C)C)[C@@H](C)CC)[C@@H](C)O)[C@@H](C)CC)[C@@H](C)O)[C@@H](C)O, lipidated shortened PrRP31 analog) [analog no. 49]
13 | 583 nM | 655 nM | TPDINPAWYTGRGARPFGRF-NH2 [analog no. 42]
14 | 8.47 nM | 7.21 nM | Myristoyl-TPDINPAWYTGRGARPFGRF-NH2 (SMILES CCCCCCCCCCCCCC(=O)N[C@H](C(=O)N1CCC[C@H]1C(=O)N[C@@H](CC(=O)O)C(=O)N[C@H](C(=O)N[C@@H](CC(N)=O)C(=O)N1CCC[C@H]1C(=O)N[C@@H](C)C(=O)N[C@@H](Cc1c[nH]c2ccccc12)C(=O)N[C@@H](Cc1ccc(O)cc1)C(=O)N[C@H](C(=O)NCC(=O)N[C@@H](CCCNC(=N)N)C(=O)NCC(=O)N[C@@H](C)C(=O)N[C@@H](CCCNC(=N)N)C(=O)N1CCC[C@H]1C(=O)N[C@@H](Cc1ccccc1)C(=O)NCC(=O)N[C@@H](CCCNC(=N)N)C(=O)N[C@@H](Cc1ccccc1)C(N)=O)[C@@H](C)O)[C@@H](C)CC)[C@@H](C)O) [analog no. 43]
